Read-outs that look alike come from different tables or passages of the source. No end group written: not given here.
T1: PC5/6 (UniProt Q92824 115-913)
T1 chain: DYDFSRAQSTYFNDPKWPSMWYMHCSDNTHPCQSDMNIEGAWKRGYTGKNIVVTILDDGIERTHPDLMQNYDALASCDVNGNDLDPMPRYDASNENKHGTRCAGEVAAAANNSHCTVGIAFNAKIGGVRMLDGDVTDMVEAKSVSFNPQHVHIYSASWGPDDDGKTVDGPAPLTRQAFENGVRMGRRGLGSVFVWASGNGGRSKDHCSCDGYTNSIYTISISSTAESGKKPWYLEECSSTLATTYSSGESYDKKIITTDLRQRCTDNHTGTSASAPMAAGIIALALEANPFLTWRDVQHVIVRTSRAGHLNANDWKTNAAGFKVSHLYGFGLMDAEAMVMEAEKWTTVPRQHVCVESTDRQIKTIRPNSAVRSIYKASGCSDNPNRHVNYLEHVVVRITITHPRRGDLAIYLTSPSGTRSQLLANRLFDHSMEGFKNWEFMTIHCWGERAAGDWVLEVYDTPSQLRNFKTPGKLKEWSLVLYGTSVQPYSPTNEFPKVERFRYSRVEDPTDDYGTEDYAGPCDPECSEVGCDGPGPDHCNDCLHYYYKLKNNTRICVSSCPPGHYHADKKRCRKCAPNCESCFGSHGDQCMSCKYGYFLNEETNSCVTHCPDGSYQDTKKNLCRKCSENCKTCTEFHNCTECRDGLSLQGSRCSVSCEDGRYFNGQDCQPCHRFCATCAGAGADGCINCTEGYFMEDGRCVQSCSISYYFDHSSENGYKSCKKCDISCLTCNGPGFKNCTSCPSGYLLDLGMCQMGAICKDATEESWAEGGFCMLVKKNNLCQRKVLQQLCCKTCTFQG

T2: PC2 (UniProt P16519 110-638)
T2 chain: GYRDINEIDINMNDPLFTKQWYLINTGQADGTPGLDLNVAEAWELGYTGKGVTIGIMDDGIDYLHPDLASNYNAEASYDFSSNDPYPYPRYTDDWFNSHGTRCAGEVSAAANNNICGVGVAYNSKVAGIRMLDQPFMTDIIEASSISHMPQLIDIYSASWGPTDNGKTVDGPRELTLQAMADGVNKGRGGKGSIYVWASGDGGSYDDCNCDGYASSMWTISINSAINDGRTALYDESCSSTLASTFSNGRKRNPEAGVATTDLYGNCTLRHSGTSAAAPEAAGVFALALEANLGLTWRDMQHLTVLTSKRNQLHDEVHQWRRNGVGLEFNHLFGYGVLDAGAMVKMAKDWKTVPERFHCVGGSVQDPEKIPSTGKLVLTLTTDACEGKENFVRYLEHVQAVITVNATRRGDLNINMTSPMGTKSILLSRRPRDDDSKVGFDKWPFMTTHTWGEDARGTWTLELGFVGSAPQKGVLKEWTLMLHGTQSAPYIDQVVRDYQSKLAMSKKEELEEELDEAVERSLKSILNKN

T3: PC1/3 (UniProt P29120 111-753)
T3 chain: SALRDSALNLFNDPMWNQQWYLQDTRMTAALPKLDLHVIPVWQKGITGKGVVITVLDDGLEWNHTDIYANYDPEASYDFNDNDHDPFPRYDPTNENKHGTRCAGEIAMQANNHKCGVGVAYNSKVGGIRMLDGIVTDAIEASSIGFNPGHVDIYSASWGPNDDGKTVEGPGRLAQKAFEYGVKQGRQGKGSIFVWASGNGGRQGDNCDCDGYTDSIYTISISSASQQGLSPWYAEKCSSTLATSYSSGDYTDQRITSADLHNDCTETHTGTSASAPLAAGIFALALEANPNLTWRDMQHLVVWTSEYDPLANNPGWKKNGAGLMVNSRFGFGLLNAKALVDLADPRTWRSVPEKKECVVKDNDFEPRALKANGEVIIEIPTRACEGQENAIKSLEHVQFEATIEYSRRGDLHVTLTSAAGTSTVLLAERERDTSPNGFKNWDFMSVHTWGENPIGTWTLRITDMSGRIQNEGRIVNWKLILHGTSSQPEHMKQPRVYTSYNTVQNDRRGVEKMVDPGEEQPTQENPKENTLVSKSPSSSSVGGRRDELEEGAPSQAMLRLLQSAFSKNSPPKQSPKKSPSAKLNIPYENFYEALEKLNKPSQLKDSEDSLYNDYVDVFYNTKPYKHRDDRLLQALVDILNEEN

T4: PC7 (UniProt Q16549 142-667)
T4 chain: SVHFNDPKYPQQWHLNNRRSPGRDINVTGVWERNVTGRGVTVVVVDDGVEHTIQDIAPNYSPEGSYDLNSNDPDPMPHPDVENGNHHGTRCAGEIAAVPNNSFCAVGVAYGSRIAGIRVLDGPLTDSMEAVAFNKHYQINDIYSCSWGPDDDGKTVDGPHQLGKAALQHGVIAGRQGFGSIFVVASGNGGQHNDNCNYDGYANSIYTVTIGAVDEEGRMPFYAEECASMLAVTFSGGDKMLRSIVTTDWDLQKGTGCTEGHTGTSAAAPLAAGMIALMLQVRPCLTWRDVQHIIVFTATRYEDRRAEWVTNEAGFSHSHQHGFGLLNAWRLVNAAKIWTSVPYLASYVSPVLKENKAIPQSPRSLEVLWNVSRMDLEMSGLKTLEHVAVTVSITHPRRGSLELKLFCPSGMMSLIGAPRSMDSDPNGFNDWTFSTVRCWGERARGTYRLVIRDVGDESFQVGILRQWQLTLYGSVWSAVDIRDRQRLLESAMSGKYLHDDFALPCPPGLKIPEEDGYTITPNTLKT

T5: PACE4 (UniProt P29122 150-969)
T5 chain: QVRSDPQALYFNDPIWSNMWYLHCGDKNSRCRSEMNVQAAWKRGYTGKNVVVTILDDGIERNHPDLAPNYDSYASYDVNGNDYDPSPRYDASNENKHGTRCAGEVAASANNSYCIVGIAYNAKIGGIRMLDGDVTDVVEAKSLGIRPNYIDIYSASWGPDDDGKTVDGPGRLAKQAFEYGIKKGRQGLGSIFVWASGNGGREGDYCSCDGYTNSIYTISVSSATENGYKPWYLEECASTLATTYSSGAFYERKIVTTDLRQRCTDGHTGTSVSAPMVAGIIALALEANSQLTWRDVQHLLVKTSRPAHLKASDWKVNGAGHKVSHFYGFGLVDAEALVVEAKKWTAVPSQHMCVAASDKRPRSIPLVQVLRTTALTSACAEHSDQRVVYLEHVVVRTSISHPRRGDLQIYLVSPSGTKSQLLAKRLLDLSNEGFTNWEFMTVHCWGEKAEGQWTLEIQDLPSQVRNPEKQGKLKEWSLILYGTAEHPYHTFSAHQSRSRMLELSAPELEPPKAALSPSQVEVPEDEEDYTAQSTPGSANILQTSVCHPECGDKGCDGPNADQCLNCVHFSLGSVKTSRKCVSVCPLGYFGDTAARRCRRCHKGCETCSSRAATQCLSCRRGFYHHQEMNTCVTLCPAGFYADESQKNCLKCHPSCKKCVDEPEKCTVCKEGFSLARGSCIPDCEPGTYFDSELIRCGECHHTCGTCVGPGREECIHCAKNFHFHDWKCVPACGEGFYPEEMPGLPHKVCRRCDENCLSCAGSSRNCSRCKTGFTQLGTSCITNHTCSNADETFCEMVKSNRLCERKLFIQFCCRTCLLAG


Tests used:
[1] = target: T6, furin (UniProt P09958 108-715)
T6 sequence (P09958 108-715): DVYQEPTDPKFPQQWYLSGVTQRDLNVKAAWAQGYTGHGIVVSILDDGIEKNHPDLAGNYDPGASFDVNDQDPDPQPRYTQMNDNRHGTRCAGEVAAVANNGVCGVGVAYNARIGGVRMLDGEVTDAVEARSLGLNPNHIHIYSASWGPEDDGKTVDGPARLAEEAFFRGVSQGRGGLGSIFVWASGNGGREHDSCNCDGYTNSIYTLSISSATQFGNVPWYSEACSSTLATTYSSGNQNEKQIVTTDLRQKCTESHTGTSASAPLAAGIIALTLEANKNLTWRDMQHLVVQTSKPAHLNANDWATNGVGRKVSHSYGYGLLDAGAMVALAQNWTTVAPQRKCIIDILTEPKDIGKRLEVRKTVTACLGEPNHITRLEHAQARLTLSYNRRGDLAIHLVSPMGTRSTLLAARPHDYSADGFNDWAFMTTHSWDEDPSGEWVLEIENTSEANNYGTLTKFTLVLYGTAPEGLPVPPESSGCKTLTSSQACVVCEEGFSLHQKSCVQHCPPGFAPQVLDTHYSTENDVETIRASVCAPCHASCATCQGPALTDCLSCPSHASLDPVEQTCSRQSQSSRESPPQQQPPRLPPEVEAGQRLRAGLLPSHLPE

[2] = target: T1, PC5/6; test: enzyme inhibition
[3] = target: T6, furin; test: enzyme inhibition
[4] = target: T2, PC2; test: enzyme inhibition
[5] = target: T3, PC1/3; test: enzyme inhibition
[6] = target: T4, PC7; test: enzyme inhibition
[7] = target: T5, PACE4; test: enzyme inhibition

| Binder | Ki [1] [nM] | Ki [2] [nM] | Ki [3] [nM] | Ki [4] [µM] | Ki [5] [nM] | Ki [6] [nM] | Ki [7] [µM] |
| --- | --- | --- | --- | --- | --- | --- | --- |
| LLLLRVKR-NH2 [LLLLRVKR-NH2] | 1140 |  |  |  |  |  |  |
| LLLLLLRVKR-NH2 [LLLLLLRVKR-NH2] |  |  | 1390 | 4.55 | 1160 | 30 |  |
| LLLLLRVKR-NH2 [LLLLLRVKR-NH2] |  |  | 1500 | 4.83 | 370 | 40 |  |

The remaining lines, values ahead:

| Ki [1] [nM] | Ki [2] [nM] | Ki [3] [nM] | Ki [4] [µM] | Ki [5] [nM] | Ki [6] [nM] | Ki [7] [µM] | Binder |
| --- | --- | --- | --- | --- | --- | --- | --- |
|  | 340 | 980 | 12.9 | 240 | 50 |  | LLLRVKR-NH2 [LLLRVKR-NH2] |
| 540 | 130 |  | 3.27 | 170 | 100 |  | LLRVKR-NH2 [LLRVKR-NH2] |
|  | 360 | 550 |  | 580 | 2490 |  | LRVKR-NH2 [LRVKR-NH2] |
|  | 5570 | 8110 |  | 1450 | 10400 | 4.34 | RVKR-NH2 [RVKR-NH2] |
